Measurements published in the MegaScale stability set (Tsuboyama et al. 2023).

B1: HHH_rd1_0493 (parent)
chain: RDEDEKEKIKEALKRGNEDKAKEIAKRANVSPEEYERLRKEAE

Variants of: B1
Assay: folding stability dG (cDNA display proteolysis); higher = more stable
Conditions: PBS, room temperature

Going from K22M to E3V, the “folding stability dG” value falls from 3.03 kcal/mol to 2.76 kcal/mol.

Going from N29E to K22Y, the “folding stability dG” value falls from 2.29 kcal/mol to 2.11 kcal/mol.

Compared with K14E, K14T is higher in “folding stability dG” value: 1.75 kcal/mol for the first, 2.07 kcal/mol for the second.

Compared with K40Q, E7S is lower in “folding stability dG” value: 3.26 kcal/mol for the first, 2.92 kcal/mol for the second.

First: I9W
Second: N29S
The “folding stability dG” value of the first is lower: 0.614 kcal/mol for the first, 2.42 kcal/mol for the second.

Going from E18F to R15Y, the “folding stability dG” value falls from 3.24 kcal/mol to 2.69 kcal/mol.

First: R27S
Second: L13I
The “folding stability dG” value of the first is lower: 2.68 kcal/mol for the first, 2.84 kcal/mol for the second.

Compared with R37H, I24M is higher in “folding stability dG” value: 2.12 kcal/mol for the first, 2.13 kcal/mol for the second.

First: A25S
Second: E33R
The “folding stability dG” value of the first is lower: 1.74 kcal/mol for the first, 1.99 kcal/mol for the second.

Going from A42F to I24G, the “folding stability dG” value falls from 2.29 kcal/mol to 0.729 kcal/mol.

Compared with G16M, A42Y is higher in “folding stability dG” value: 1.46 kcal/mol for the first, 2.14 kcal/mol for the second.

First: K40T
Second: D4R
The “folding stability dG” value of the first is lower: 2.8 kcal/mol for the first, 2.88 kcal/mol for the second.

First: E23V
Second: R15T
The “folding stability dG” value of the first is lower: 2.17 kcal/mol for the first, 2.81 kcal/mol for the second.

First: E41C
Second: E36C
The “folding stability dG” value of the first is lower: 1.88 kcal/mol for the first, 2.86 kcal/mol for the second.

Going from L13H to A28N, the “folding stability dG” value rises from 0.865 kcal/mol to 2.9 kcal/mol.

First: E7W
Second: E41Y
The “folding stability dG” value of the first is higher: 3.29 kcal/mol for the first, 1.63 kcal/mol for the second.

Going from E23N to N17R, the “folding stability dG” value rises from 2.02 kcal/mol to 2.68 kcal/mol.

Going from E11W to I9P, the “folding stability dG” value falls from 1.91 kcal/mol to 0.579 kcal/mol.

Going from R39S to E3C, the “folding stability dG” value rises from 2.1 kcal/mol to 2.57 kcal/mol.

Going from Y35L to E5C, the “folding stability dG” value rises from 2.26 kcal/mol to 2.42 kcal/mol.

Compared with E41G, Y35C is lower in “folding stability dG” value: 1.59 kcal/mol for the first, 0.708 kcal/mol for the second.

Going from D4T to E34T, the “folding stability dG” value falls from 2.91 kcal/mol to 1.51 kcal/mol.

Going from R39F to N29F, the “folding stability dG” value rises from 1.95 kcal/mol to 2.29 kcal/mol.

First: E7T
Second: E3P
The “folding stability dG” value of the first is higher: 3 kcal/mol for the first, 2.79 kcal/mol for the second.

Going from A42V to D19S, the “folding stability dG” value falls from 3.33 kcal/mol to 2.93 kcal/mol.

First: D4S
Second: R15K
The “folding stability dG” value of the first is higher: 3.03 kcal/mol for the first, 2.91 kcal/mol for the second.

Compared with K40N, Y35I is lower in “folding stability dG” value: 2.72 kcal/mol for the first, 1.39 kcal/mol for the second.

Compared with R37M, K22N is lower in “folding stability dG” value: 2.49 kcal/mol for the first, 2.11 kcal/mol for the second.

First: E34H
Second: K10P
The “folding stability dG” value of the first is higher: 0.903 kcal/mol for the first, 0.064 kcal/mol for the second.

First: N29R
Second: N17A
The “folding stability dG” value of the first is lower: 2.55 kcal/mol for the first, 2.65 kcal/mol for the second.

Going from E34C to A21G, the “folding stability dG” value falls from 1.85 kcal/mol to 1.13 kcal/mol.

Compared with R37D, K6L is higher in “folding stability dG” value: 2.02 kcal/mol for the first, 3.25 kcal/mol for the second.

Going from S31Y to Y35V, the “folding stability dG” value rises from 1.3 kcal/mol to 1.59 kcal/mol.

Going from R37S to V30N, the “folding stability dG” value falls from 2.27 kcal/mol to 0.389 kcal/mol.

Going from D19Y to K10S, the “folding stability dG” value falls from 2.5 kcal/mol to 1.27 kcal/mol.

Going from E18S to A28Y, the “folding stability dG” value rises from 2.47 kcal/mol to 3.02 kcal/mol.

First: I9Y
Second: I9N
The “folding stability dG” value of the first is lower: 0.577 kcal/mol for the first, 0.856 kcal/mol for the second.

First: R1I
Second: A12E
The “folding stability dG” value of the first is higher: 3.2 kcal/mol for the first, 2.85 kcal/mol for the second.

First: E36W
Second: E3S
The “folding stability dG” value of the first is lower: 1.68 kcal/mol for the first, 2.89 kcal/mol for the second.

Going from K10N to G16A, the “folding stability dG” value rises from 0.92 kcal/mol to 1.67 kcal/mol.

First: D2K
Second: R15G
The “folding stability dG” value of the first is higher: 2.82 kcal/mol for the first, 2.71 kcal/mol for the second.

Going from K26F to R1Q, the “folding stability dG” value rises from 2.47 kcal/mol to 3.1 kcal/mol.

Compared with A25E, K40H is higher in “folding stability dG” value: 0.618 kcal/mol for the first, 3.01 kcal/mol for the second.

Going from V30H to K6P, the “folding stability dG” value rises from 0.486 kcal/mol to 1.72 kcal/mol.

First: E43I
Second: K8C
The “folding stability dG” value of the first is higher: 3.07 kcal/mol for the first, 2.37 kcal/mol for the second.

Going from E23K to D19P, the “folding stability dG” value rises from 2.26 kcal/mol to 2.64 kcal/mol.

Compared with E23D, R1Y is higher in “folding stability dG” value: 2.56 kcal/mol for the first, 3.11 kcal/mol for the second.

Going from S31V to K10F, the “folding stability dG” value rises from 1.66 kcal/mol to 2.11 kcal/mol.

Going from N17C to K26N, the “folding stability dG” value rises from 1.99 kcal/mol to 2.64 kcal/mol.

Compared with A25C, Y35N is lower in “folding stability dG” value: 1.54 kcal/mol for the first, -0.057 kcal/mol for the second.

First: A25R
Second: A12F
The “folding stability dG” value of the first is lower: 1.16 kcal/mol for the first, 2.87 kcal/mol for the second.

Going from K8V to K14H, the “folding stability dG” value rises from 1.94 kcal/mol to 2.28 kcal/mol.

Compared with I9V, R1C is higher in “folding stability dG” value: 2.09 kcal/mol for the first, 2.64 kcal/mol for the second.

Compared with R37K, L38M is lower in “folding stability dG” value: 2.68 kcal/mol for the first, 2.26 kcal/mol for the second.

Compared with E41F, E11F is lower in “folding stability dG” value: 1.84 kcal/mol for the first, 1.56 kcal/mol for the second.

Going from E5T to L13W, the “folding stability dG” value falls from 3.37 kcal/mol to 1.14 kcal/mol.

Going from K14M to K22C, the “folding stability dG” value falls from 2.79 kcal/mol to 1.79 kcal/mol.

Compared with K6T, E3G is higher in “folding stability dG” value: 2.61 kcal/mol for the first, 2.88 kcal/mol for the second.

Compared with N17V, K40L is higher in “folding stability dG” value: 1.45 kcal/mol for the first, 3.21 kcal/mol for the second.

Going from E5W to R37W, the “folding stability dG” value falls from 4.45 kcal/mol to 2.16 kcal/mol.

Compared with E3I, D4A is higher in “folding stability dG” value: 2.75 kcal/mol for the first, 2.83 kcal/mol for the second.

Going from V30E to S31A, the “folding stability dG” value rises from 0.435 kcal/mol to 2.45 kcal/mol.

Going from D2G to K6D, the “folding stability dG” value falls from 2.95 kcal/mol to 1.85 kcal/mol.

Going from I24T to R15E, the “folding stability dG” value rises from 1.32 kcal/mol to 3.24 kcal/mol.

Compared with E43V, P32V is lower in “folding stability dG” value: 2.79 kcal/mol for the first, 2.74 kcal/mol for the second.

First: K8P
Second: D19F
The “folding stability dG” value of the first is lower: 0.847 kcal/mol for the first, 2.6 kcal/mol for the second.

First: A25K
Second: A21H
The “folding stability dG” value of the first is higher: 0.845 kcal/mol for the first, 0.313 kcal/mol for the second.

First: D4I
Second: R1T
The “folding stability dG” value of the first is lower: 2.95 kcal/mol for the first, 3.28 kcal/mol for the second.

Going from G16W to A12Y, the “folding stability dG” value rises from 0.968 kcal/mol to 2.88 kcal/mol.

Going from K20T to K22T, the “folding stability dG” value falls from 2.76 kcal/mol to 2.24 kcal/mol.

Going from E11Y to K26R, the “folding stability dG” value rises from 1.67 kcal/mol to 3.1 kcal/mol.

Going from E33Q to P32F, the “folding stability dG” value rises from 2.58 kcal/mol to 2.76 kcal/mol.

First: I24L
Second: Y35F
The “folding stability dG” value of the first is lower: 2.8 kcal/mol for the first, 3.53 kcal/mol for the second.

First: E36R
Second: N17W
The “folding stability dG” value of the first is lower: 1.67 kcal/mol for the first, 3.09 kcal/mol for the second.

Going from E5D to E18K, the “folding stability dG” value falls from 3 kcal/mol to 2.25 kcal/mol.

First: E18Y
Second: N17I
The “folding stability dG” value of the first is higher: 3.21 kcal/mol for the first, 1.54 kcal/mol for the second.

First: E36I
Second: D2M
The “folding stability dG” value of the first is lower: 1.88 kcal/mol for the first, 2.86 kcal/mol for the second.

First: S31F
Second: K6I
The “folding stability dG” value of the first is lower: 1.4 kcal/mol for the first, 3.24 kcal/mol for the second.

First: E5G
Second: N17T
The “folding stability dG” value of the first is higher: 2.08 kcal/mol for the first, 1.63 kcal/mol for the second.

Going from I9G to E33D, the “folding stability dG” value rises from 0.603 kcal/mol to 2.64 kcal/mol.

Going from E33N to D4W, the “folding stability dG” value rises from 2.07 kcal/mol to 3.02 kcal/mol.

First: E43T
Second: Y35H
The “folding stability dG” value of the first is higher: 2.65 kcal/mol for the first, 0.142 kcal/mol for the second.

Going from P32I to R39W, the “folding stability dG” value falls from 2.77 kcal/mol to 2.02 kcal/mol.

In the case of R15D, the “folding stability dG” value is reported as 2.85 kcal/mol.
